Literature values as cited in article PMC4689310.

Legend:
[1] = molecular target: H3 peptide 1-18 (Homo sapiens) (UniProt P68431)
[2] = molecular target: H4K20me1 peptide (Homo sapiens) (UniProt P62805)
[3] = molecular target: H4K16ac peptide (Homo sapiens) (UniProt P62805); assay: ITC
[4] = molecular target: H3 K4un/K23ac peptide (Homo sapiens) (UniProt P68431)
[5] = molecular target: H3K23ac peptide 13-32 (Homo sapiens) (UniProt P68431)
[6] = molecular target: H3 unmodified K4 peptide (Homo sapiens) (UniProt P68431)
[7] = molecular target: H3K18ac peptide 1-28 (Homo sapiens) (UniProt P68431)
[8] = molecular target: H3K9me3 peptide 1-28 (Homo sapiens) (UniProt P68431)
[9] = molecular target: H3 peptide 1-28 (Homo sapiens) (UniProt P68431)

Sequence of DPF3b tandem PHD fingers (Q92784 259-366): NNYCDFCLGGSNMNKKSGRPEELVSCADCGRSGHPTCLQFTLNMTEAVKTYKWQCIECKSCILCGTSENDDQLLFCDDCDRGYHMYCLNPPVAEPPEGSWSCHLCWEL

DPF3b tandem PHD fingers (from UniProt Q92784)
Kd [1]: 2300 nM

MSL3 chromodomain (from UniProt Q8N5Y2)
Kd [2]: 10000 nM

TAF1 double bromodomain (from UniProt P21675)
Kd [3]: 39000 nM

TRIM24 PHD-Bromo (from UniProt O15164)
Kd [4]: 96 nM
Kd [5]: 8800 nM
Kd [6]: 2300 nM

TRIM33 PHD-Bromo (from UniProt Q9UPN9)
Kd [7]: 210 nM
Kd [8]: 200 nM
Kd [9]: 460 nM
